B1: F-box/WD repeat-containing protein 7 (Drosophila melanogaster (Fruit fly)), Q9VZF4 (parent)
chain: MERGCPAASSESVTSAGERTQSAVTSSTSTWVKSQASTSRKTEASEESGLGAVDAEVGAGREAFVSMSTLREDVEDVCVSSNSQHGFAVVLDDESSTFEISSSNSLPTSAGAASTVGVVAVDDSSSTDTLNGGHPDLGHPASSEHSRQGFFNEDNEDPPVVCLINDDDDDEEPEPEEDDEEELIEDEDEDAVDIVTGAISCPNTSQLALADGTIMAADGSKIFLETPVVEEAQPHPGQVVTTGSQSELTGKPKRLSDEFLLGEEDQAENLALGRCIKSEPVNPVDDNPSEGDDGATCFSLHDRLMSVRLKQMSLTANTVSNPSPAASANAAAPEEASTSNSSSTSSSALSRADIESMDLIERRDFETEQRLTGGIILRTSSMVSQNKLNLSLIKSMAGGSKAANGSGTANSDDWPSSSNGRTVSSDSKYTYKDLSTTPTSSRKYTNSRLSKSTAKLNLGSSLGASSCSQHRSGSSSTSKSMESSTSCTGAARTDVYTNTNSNDYPSLAPTTSGSSTSGGSCQQDQEENVSASVSYSSVGSQTSQESGCSRTTAINPTAACSTGSACLGDSQASTSASTSSGAGASNRCQYATTSTTKAARQVNASAQTQERFLTRSNPPAASGAGSVGANPTASVRQRRNGSSDVVHLEVVVEEGAGGGDGGVVEPGDFSAEEPWANCDEENNCSDLEEICTCQNGNGSSYGGSNASLSETFDMDAMDPDEPISLSLSSASAGFTEYSLTNPSSLMSHQRKRKFNEGRLLDGGDYSVTISSSGEVGGPGSGVSDNCRKRIAYDFASTPRSSQHLGPTAVLSVTPSSHLTSSTPGSALGRRTPRSVPSRDNPPPELQHWLAQFQRWSHVERLLALDRLIDHCDPSQVRHMMKVIEPQFQRDFISLLPRELALFVLSYLEPKDLLRAAQTCRSWRFLCDDNLLWKEKCRKAQILAEPRSDRPKRGRDGNMPPIASPWKAAYMRQHIIEMNWRSRPVRKPKVLKGHDDHVITCLQFSGNRIVSGSDDNTLKVWSAVNGKCLRTLVGHTGGVWSSQMSGNIIISGSTDRTLKVWDMDSGACVHTLQGHTSTVRCMHLHGSKVVSGSRDATLRVWDIEQGSCLHVLVGHLAAVRCVQYDGKLIVSGAYDYMVKIWHPERQECLHTLQGHTNRVYSLQFDGLHVVSGSLDTSIRVWDVETGNCKHTLMGHQSLTSGMELRQNILVSGNADSTVKVWDITTGQCLQTLSGPNKHHSAVTCLQFNSRFVVTSSDDGTVKLWDVKTGDFIRNLVALDSGGSGGVVWRIRANDTKLICAVGSRNGTEETKLMVLDFDVEGACVKCS
partner: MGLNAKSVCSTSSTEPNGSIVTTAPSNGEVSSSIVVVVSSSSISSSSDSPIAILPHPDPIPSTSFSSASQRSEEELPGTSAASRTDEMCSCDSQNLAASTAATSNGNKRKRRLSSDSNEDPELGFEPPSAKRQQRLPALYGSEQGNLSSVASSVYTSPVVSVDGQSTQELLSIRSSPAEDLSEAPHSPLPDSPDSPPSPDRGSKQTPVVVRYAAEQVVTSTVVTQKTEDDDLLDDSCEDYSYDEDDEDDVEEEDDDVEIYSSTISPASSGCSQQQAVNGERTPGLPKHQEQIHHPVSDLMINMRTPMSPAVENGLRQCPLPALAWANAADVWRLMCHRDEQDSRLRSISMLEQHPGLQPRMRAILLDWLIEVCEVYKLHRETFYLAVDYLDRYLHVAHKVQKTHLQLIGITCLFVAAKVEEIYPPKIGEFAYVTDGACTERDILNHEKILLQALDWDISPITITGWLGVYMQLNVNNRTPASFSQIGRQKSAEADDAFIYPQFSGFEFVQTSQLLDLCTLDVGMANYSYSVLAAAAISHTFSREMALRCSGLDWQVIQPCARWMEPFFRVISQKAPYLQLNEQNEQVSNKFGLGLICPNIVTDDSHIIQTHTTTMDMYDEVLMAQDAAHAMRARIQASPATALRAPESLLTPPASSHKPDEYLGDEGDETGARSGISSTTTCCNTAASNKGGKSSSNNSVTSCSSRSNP

Variants of: B1
Settings: with ccne_drome CycE

Variant	effect of a mutation on the interaction
G1131E	decreasing interaction
